# Assay results reported in publication PMC7596504, “Molecular mechanism of the MORC4 ATPase activation” (Nature Communications, 2020).
# Positions count from the first letter of the chain named. Numbers in names are those of the source.
# T1: MORC4 CW domain (Homo sapiens, UniProt Q8TE76)
# T1 construct: The CW domain (aa 417–475) of MORC4 was cloned into a pGEX 6p-1 vector; GST (N, cleaved yes); made in house; host or cells: E. coli Rosetta2 (DE3) pLysS or BL21 (DE3) RIL
# T1 sequence (Q8TE76 417-475): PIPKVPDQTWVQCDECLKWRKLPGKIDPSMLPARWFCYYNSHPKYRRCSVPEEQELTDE
# B1: MORC4 K460A/R462A/R463A: mCherry-tagged MORC4 triple mutant with disrupted DNA-binding activity of CW (protein, UniProt Q8TE76 1-937, looked up, variant K460A R462A R463A)
# MORC family CW-type zinc …: MLLYRGAPAGPGAPGCGLARPGGGPQAFGIRLSTMSPRYLQSNSSSHTRPFSAIAELLDNAVDPDVSARTVFIDVEEVKNKSCLTFTDDGCGMTPHKLHRMLSFGFTDKVIKKSQCPIGVFGNGFKSGSMRLGKDALVFTKNGGTLTVGLLSQTYLECVQAQAVIVPIVPFNQQNKKMIITEDSLPSLEAILNYSIFNRENDLLAQFDAIPGKKGTRVLIWNIRRNKNGKSELDFDTDQYDILVSDFDTEEKMTGGVTSELPETEYSLRAFCGILYMKPRMKIFLRQKKVTTQMIAKSLANVEYDTYKPTFTNKQVRITFGFSCKNSNQFGIMMYHNNRLIKSFEKVGCQVKPTRGEGVGVIGVIECNFLKPAYNKQDFEYTKEYRLTINALAQKLNAYWKEKTSQDNFETSTVARPIPKVPDQTWVQCDECLKWRKLPGKIDPSMLPARWFCYYNSHPAYAACSVPEEQELTDEDLCLSKAKKQEQTVEEKKKMPMENENHQVFSNPPKILTVQEMAGLNNKTIGYEGIHSPSVLPSGGEESRSPSLQLKPLDSSVLQFSSKYKWILGEEPVEKRRRLQNEMTTPSLDYSMPAPYRRVEAPVAYPEGENSHDKSSSERSTPPYLFPEYPEASKNTGQNREVSILYPGAKDQRQGSLLPEELEDQMPRLVAEESNRGSTTINKEEVNKGPFVAVVGVAKGVRDSGAPIQLIPFNREELAERRKAVESWNPVPYSVASAAIPAAAIGEKARGYEESEGHNTPKLKNQRELEELKRTTEKLERVLAERNLFQQKVEELEQERNHWQSEFKKVQHELVIYSTQEAEGLYWSKKHMGYRQAEFQILKAELERTKEEKQELKEKLKETETHLEMLQKAQVSYRTPEGDDLERALAKLTRLRIHVSYLLTSVLPHLELREIGYDSEQVDGILYTVLEANHILD
# modifications: mCherry tag
# B2: E56A/W435A: dual mutant of mCherry-tagged MORC4 (protein, UniProt Q8TE76 1-937, looked up, variant E56A W435A)
# chain: B1 MORC family CW-type zinc … with E56A, W435A, A460K, A462R, A463R
# modifications: full-length mCherry tag
# notes: dual mutant of mCherry-tagged MORC4
# B3: MORC4 W435A: mCherry-tagged full-length MORC4 W435A mutant, in which the structure of the CW domain is disrupted (protein, UniProt Q8TE76 1-937, looked up, variant W435A)
# chain: B1 MORC family CW-type zinc … with W435A, A460K, A462R, A463R
# modifications: full-length mCherry tag
# B4: LexA: transcription factor LexA, expressed in E. coli (protein, UniProt P0A7C2 1-202, looked up)
# LexA repressor: MKALTARQQEVFDLIRDHISQTGMPPTRAEIAQRLGFRSPNAAEEHLKALARKGVIEIVSGASRGIRLLQEEEEGLPLVGRVAAGEPLLAQQHIEGHYQVDPSLFKPNADFLLRVSGMSMKDIGIMDGDLLAVHKTQDVRNGQVVVARIDDEVTVKRLKKQGNKVELLPENSEFKPIVVDLRQQSFTIEGLAVGVIRNGDWL
# Experiments:
# HEK293T cells [1] = assay: Cell cycle analysis by flow cytometry; format: cell-based; conditions: for effect on S phase (words): 48-h overexpression, vs control cells; for percent of cells in S phase: 48-h overexpression of mCherry-tagged protein, EdU/PI, average of three independent experiments, control 34.5%
# Procedure: For DNA content analysis, 10^6 cells previously transfected with mCherry MORC4 constructs and labeled with 25 µM Ethynyl deoxyUridine (EdU) for 1 h in 100 µL were washed with PBS (NaCl 137 mM, KCl 2.7 mM, Na2HPO4 10 mM, KH2PO4 1.8 mM) and fixed in ice cold 70% ethanol overnight. Fixed cells were washed and resuspended in PBS containing 0.05% NP40 and incubated at room temperature for 30 min. Cells were again washed with PBS. Cells were resuspended in Alexa Fluor 647 click staining solution (100 mM Tris pH 7.6, 4 mM CuSO4, 3 µM AF647 azide, 100 mM Sodium Ascorbate) for 1 h. Following staining, cells were washed with PBS and then stained for total DNA content using 10 μg/mL propidium iodide (PI) and 0.2 mg/ml RNase A for 60 min before analysis on a FACScan instrument. Data were analyzed using FlowJo (Version 10) with cells gated to remove doublets. EdU vs PI plots were gated in quadrants to identify G1, early S, late S and G2/M cells. S phase fractions were summed for total S phase population. […]
# MORC4 CW domain = target: T1, MORC4 CW domain; assay: 1H,15N HSQC NMR titration of MORC4 CW; format: binding; conditions: Supplementary Fig. 12
# Procedure: NMR experiments were carried out at 298 K on a Varian INOVA 600 and 900 MHz spectrometers. His-tagged MORC4 ATPase (1–411) was expressed and purified as described above and used without cleavage of the tag. NMR samples contained 0.1 mM uniformly ^15N-labeled WT or mutated CW in 20 mM Tris-HCl (pH 7) buffer supplemented with 100 mM NaCl, 5 mM DTT, and 10% D2O. Binding was characterized by monitoring CSPs in the proteins induced by H3 peptides or the ATPase domain. For the CWKRR mutant, NMR experiments were performed in 20 mM Tris-HCl (pH 6.8) buffer supplemented with 150 mM NaCl, 2 mM DTT, and 10% D2O.
# HEK293T cells [2] = assay: MORC4 localization and nuclear bodies (confocal microscopy); format: cell-based; conditions: live cells, confocal microscopy, 48 h post transfection
# Procedure: WT mCherry-MORC4, mCherry-MORC4 E56A, mCherry-MORC4 W435A, mCherry-MORC4 E56A/W435A, mCherry-MORC4 K460A/R462A/R463A, or mCherry control plasmid were transfected into 2 million 293T-HEK cells seeded on 25 mm circular coverslips (Carolina Biological Supply Item#: 633057) in 10-cm-diameter tissue culture dish by Lipofectamine 3000 (Life Technology, L3000-075) following the manufacturer’s instructions. Two days after transfection, cells were stained with Hoechst […] for 30 min and imaged live on a ZeissAxiovert 200 M inverted microscope fitted with a ×40 oil objective. Images were acquired with Slidebook 6 software and exported for analysis in Image J.
# mCherry foci sizes were calculated using ImageJ image processing program (version 1.51) using the Analyze Particle tool. mCherry particle sizes were collected for MORC4 WT and MORC4 W435A transfected cells. Data were plotted with R (version 3.4.1) using ggplot2 (version 3.2.1). Cell size and mCherry foci count per cell were calculated using CellProfile cell image analysis software (version 3.1.5) to identify nuclei and mCherry foci, relate mCherry foci to nuclei containing them and measure the size of nuclei and number mCherry foci contained. Data were plotted with R (version 3.4.1) using ggplot2 (version 3.2.1).
# NCP147 = assay: FRET, LexA titration into Cy3-Cy5 labeled NCP147; format: binding; conditions: mean of n = 3
# Procedure: Histone octamers unlabeled or labeled with Cy5 at H2AK119 were prepared as previously described. NCPs were reconstituted by combining octamer with 1.25× excess DNA and performing slow salt dialysis. Free DNA was then separated from fully reconstituted NCPs by sucrose gradient purification. NCPs for fluorescence polarization assays were reconstituted from unlabeled octamer and 207 bp DNA containing the 601 Widom sequence flanked with a 30 bp linker on either side and internally labeled with Fluorescein 27 bp in from the 5′ end. Cy3-Cy5 labeled NCPs for FRET assays were reconstituted with Cy5 labeled octamer plus either 147 bp 601 Widom DNA containing a LexA transcription factor binding site at bases 8–27[34], or 252 bp DNA containing the 601 Widom sequence with a 75 bp linker at the 3′ end, a 30 bp linker at the 5’ end, and a Gal4 transcription factor binding site at bases 8–26 in the 601 Widom sequence. The 147 bp LexA-binding DNA was labeled with Cy3 on the 5′ end, and the 252 bp Gal4-binding DNA was internally labeled with Cy3 34 bp in from the 5′ end.
# LexA was expressed in E. coli, separated from genomic DNA and the proteome by polyethyleneimine precipitation, and salted out with ammonium sulfate. LexA was resuspended in buffer A (20 mM potassium phosphate pH 7, 0.1 mM EDTA, 10% glycerol, 1 mM DTT) + 200 mM NaCl and purified by a linear gradient to A + 800 mM NaCl over either a cellulose phosphate or HiTrap Heparin HP column. […]
# Cy3-Cy5 NCP FRET efficiency measurements were carried out on a Horiba Scientific Fluoromax 4. […] LexA titrations were carried out in 20 mM Tris pH 7.5, 75 mM NaCl, 10% glycerol, 0.00625% Tween 20 buffer with 5 nM 147 bp Cy3-Cy5 NCPs mixed in 20 µL reaction volumes and allowed to incubate for 5 mins at 4 °C before FRET of the sample was measured. […] Gal4 (1–147) titrations were carried out in 10 mM Tris pH 8, 130 mM NaCl, 10% glycerol, 0.0075% Tween 20 buffer with 1 nM 252 bp Cy3-Cy5 nucleosomes mixed in 60 µL reaction volumes and allowed to incubate for 10 mins at room temperature before FRET of the sample was measured. […]
molecule,measurement,setting,value
B1,effect on S phase (words),HEK293T cells [1],increased percent of cells in S phase
same,effect on S phase (words),HEK293T cells [1]; listed as K460A/R462A/R463A,no significant effect was observed
B2,percent of cells in S phase,HEK293T cells [1],35.8%
B3,structure of the CW domain,MORC4 CW domain,the structure of the CW domain is disrupted
same,subcellular localization,HEK293T cells [2],dispersed throughout the cell
same,percent of cells in S phase,HEK293T cells [1],36.5%
B4,S1/2,NCP147; +1 μM MORC4 ATPaseCW,2.4 ± 0.4 µM
same,S1/2,"NCP147; without MORC4, 5 nM NCP147, pH 7.5, 75 mM NaCl, 4 °C, 5 min",0.9 ± 0.2 µM
